Our source for the Tumor uptake and Renal activity values is PMC5118228 (EJNMMI Research, 2016).

Each structure is given as a SMILES string. Where two headings read alike, the source gives them in different places.

The series deals with AR42J tumor-bearing mice. To be noted: male, athymic nu/nu, mouse, in vivo, iv, 0.3 nmol.

For the setting “10 min”, `C[C@@H](O)[C@H](NC(=O)[C@@H]1CSSC[C@H](NC(=O)[C@@H](Cc2ccccc2)NC(=O)CN2CCN(CC(=O)O)CCN(CC(=O)O)CCN(CC(=O)O)CC2)C(=O)N[C@@H](Cc2ccc(O)cc2)C(=O)N[C@H](Cc2c[nH]c3ccccc23)C(=O)N[C@@H](CCCCN)C(=O)N[C@@H]([C@@H](C)O)C(=O)N1)C(=O)O` [^111In-DOTATATE, metal not drawn] registered a Tumor uptake of 6.3 ± 1.3 %IA/g. Where the note is “1 h”, this molecule yielded a Renal activity of 10.9 ± 0.6 %IA/g and a Tumor uptake of 6.0 ± 1.2 %IA/g.
